B1: 抗体15A7 (antibody, V domains shown)
VH: QVQLVQSGAEVKKPGASVKVSCKASGYTFTSYDINWVRQASGQGLEWMGWMNPNSANPGYAQKFQGRVTMTRNTSISTAFMELSSLRSDDTAVYYCARARVTIHYDILTGYYSNAFDIWGQGTMVAVSS
VL: DIQMTQSPSSLSASVGDRVTITCRASQTISSYLNWYQQKPGKAPKLLIYAASSLQSGVPSRFSGSGSGADFTLTISSLQPEDFATYYCQQSYTTFMYTFGQGTMLEIK
B2: 抗体37G2 (antibody, V domains shown)
VH: QVQLVQSGAEVKKPGSSVKVSCKASGGTFSSYAITWVRQAPGQGLEWMGGIIPIFGTANFAQKFQGRVTITADESTSTAYMELSSLRSEDTAVYYCAHLGGFADPFDYWGQGTLVTVSS
VL: EIVLTQSPATLSLSPGERATLSCRASQSVSNYLAWYQQKAGQAPRVLIYDAFNRATGIPARFSGSGSGTDFTLTISSLEPEDFAVYYCQQRSNWPPRITFGQGTRLEIK
B3: 抗体31C2 (antibody, V domains shown)
VH: QVQLVQSGAEVKKPGSSVKVSCKASGGTFSSYAISWVRQAPGQGLEWMGGIIPIFGTTNYAQKFQGRVTITADESTSTAYMELNSLRSEDTAVYYCAGRSAYGDKGYYFDYWGQGTLVTVSS
VL: EIVLTQSPATLSLSPGERATLSCRASQSVSNFLAWYQQKPGQAPRLLIYDASNRATGIPARFSGSGSGTDFTLTISSLQPEDFAVYYCQQRSNWPPQETFGQGTKVEIK

Target: 真实SARS-CoV-2(活病毒)
Test: cell-based or functional assay

Binder	EC50 (活病毒在Vero-E6细胞中的活体外中和分析)
B1	0.61 µg/mL
B2	1.37 µg/mL
B3	0.57 µg/mL

— patent CN112980885A (HENGYI BIOMEDICAL TECH SHANGHAI CO LTD, dated 2021)
